Assay results: the RNAGym collection of RNA variant scans (doi:10.1021/acssynbio.7b00057)

B1: Pistol ribozyme (parent)
chain: GGGUCGUUGUUCCAUAAUCGCGUGGAUAUGGCACGCAAGUUUCUACCGGGCACCGUAAAUGUCCGACUGGAGCCGUUCGGGCGGCUAUAAACAGACCUCAGGCCCGAAGCGUGGCGGCACCUGCCGCCGGUGGUAAAAAAGAUCGGAAGAGCACACGUCU

Variants of: B1
Test: aptazyme ON/OFF ratio, guanine; higher = stronger switching; co-transcriptional cleavage with and without guanine

Variant | aptazyme ON/OFF ratio
GGGUCGUCAAAGGAUAAUCGCGUGGAUAUGGCACGCAAGUUUCUACCGGGCACCGUAAAUGUCCGACUGGAGCCGUUCGGGCGGCUAUAAACAGACCUCAGGCCCGAAGCGUGGCGGCACCUGCCGCCGGUGGUAAAAAAGAUCGGAAGAGCACACGUCU [U8C G9A U10A U11A C12G C13G] | 1.17
GGGUCGUCAAAGAAUAAUCGCGUGGAUAUGGCACGCAAGUUUCUACCGGGCACCGUAAAUGUCCGACUGGAGCCGUUCGGGCGGCUAUAAACAGACCUCAGGCCCGAAGCGUGGCGGCACCUGCCGCCGGUGGUAAAAAAGAUCGGAAGAGCACACGUCU [U8C G9A U10A U11A C12G C13A] | 1.15
GGGUCGUCAAAGUAUAAUCGCGUGGAUAUGGCACGCAAGUUUCUACCGGGCACCGUAAAUGUCCGACUGGAGCCGUUCGGGCGGCUAUAAACAGACCUCAGGCCCGAAGCGUGGCGGCACCUGCCGCCGGUGGUAAAAAAGAUCGGAAGAGCACACGUCU [U8C G9A U10A U11A C12G C13U] | 1.21
GGGUCGUCAAAGCAUAAUCGCGUGGAUAUGGCACGCAAGUUUCUACCGGGCACCGUAAAUGUCCGACUGGAGCCGUUCGGGCGGCUAUAAACAGACCUCAGGCCCGAAGCGUGGCGGCACCUGCCGCCGGUGGUAAAAAAGAUCGGAAGAGCACACGUCU [U8C G9A U10A U11A C12G] | 1.32
GGGUCGUCAAAUCAUAAUCGCGUGGAUAUGGCACGCAAGUUUCUACCGGGCACCGUAAAUGUCCGACUGGAGCCGUUCGGGCGGCUAUAAACAGACCUCAGGCCCGAAGCGUGGCGGCACCUGCCGCCGGUGGUAAAAAAGAUCGGAAGAGCACACGUCU [U8C G9A U10A U11A C12U] | 1.35
GGGUCGUCAACCAAUAAUCGCGUGGAUAUGGCACGCAAGUUUCUACCGGGCACCGUAAAUGUCCGACUGGAGCCGUUCGGGCGGCUAUAAACAGACCUCAGGCCCGAAGCGUGGCGGCACCUGCCGCCGGUGGUAAAAAAGAUCGGAAGAGCACACGUCU [U8C G9A U10A U11C C13A] | 1.05
GGGUCGUCAACCUAUAAUCGCGUGGAUAUGGCACGCAAGUUUCUACCGGGCACCGUAAAUGUCCGACUGGAGCCGUUCGGGCGGCUAUAAACAGACCUCAGGCCCGAAGCGUGGCGGCACCUGCCGCCGGUGGUAAAAAAGAUCGGAAGAGCACACGUCU [U8C G9A U10A U11C C13U] | 1.06
GGGUCGUCAACCGAUAAUCGCGUGGAUAUGGCACGCAAGUUUCUACCGGGCACCGUAAAUGUCCGACUGGAGCCGUUCGGGCGGCUAUAAACAGACCUCAGGCCCGAAGCGUGGCGGCACCUGCCGCCGGUGGUAAAAAAGAUCGGAAGAGCACACGUCU [U8C G9A U10A U11C C13G] | 1.04
GGGUCGUCAACGGAUAAUCGCGUGGAUAUGGCACGCAAGUUUCUACCGGGCACCGUAAAUGUCCGACUGGAGCCGUUCGGGCGGCUAUAAACAGACCUCAGGCCCGAAGCGUGGCGGCACCUGCCGCCGGUGGUAAAAAAGAUCGGAAGAGCACACGUCU [U8C G9A U10A U11C C12G C13G] | 1.35
GGGUCGUCAACGUAUAAUCGCGUGGAUAUGGCACGCAAGUUUCUACCGGGCACCGUAAAUGUCCGACUGGAGCCGUUCGGGCGGCUAUAAACAGACCUCAGGCCCGAAGCGUGGCGGCACCUGCCGCCGGUGGUAAAAAAGAUCGGAAGAGCACACGUCU [U8C G9A U10A U11C C12G C13U] | 1.3
GGGUCGUCAACGAAUAAUCGCGUGGAUAUGGCACGCAAGUUUCUACCGGGCACCGUAAAUGUCCGACUGGAGCCGUUCGGGCGGCUAUAAACAGACCUCAGGCCCGAAGCGUGGCGGCACCUGCCGCCGGUGGUAAAAAAGAUCGGAAGAGCACACGUCU [U8C G9A U10A U11C C12G C13A] | 1.21
GGGUCGUCAACUUAUAAUCGCGUGGAUAUGGCACGCAAGUUUCUACCGGGCACCGUAAAUGUCCGACUGGAGCCGUUCGGGCGGCUAUAAACAGACCUCAGGCCCGAAGCGUGGCGGCACCUGCCGCCGGUGGUAAAAAAGAUCGGAAGAGCACACGUCU [U8C G9A U10A U11C C12U C13U] | 1.14
GGGUCGUCAACUAAUAAUCGCGUGGAUAUGGCACGCAAGUUUCUACCGGGCACCGUAAAUGUCCGACUGGAGCCGUUCGGGCGGCUAUAAACAGACCUCAGGCCCGAAGCGUGGCGGCACCUGCCGCCGGUGGUAAAAAAGAUCGGAAGAGCACACGUCU [U8C G9A U10A U11C C12U C13A] | 1.13
GGGUCGUCAACUGAUAAUCGCGUGGAUAUGGCACGCAAGUUUCUACCGGGCACCGUAAAUGUCCGACUGGAGCCGUUCGGGCGGCUAUAAACAGACCUCAGGCCCGAAGCGUGGCGGCACCUGCCGCCGGUGGUAAAAAAGAUCGGAAGAGCACACGUCU [U8C G9A U10A U11C C12U C13G] | 1.14
GGGUCGUCAAAAUAUAAUCGCGUGGAUAUGGCACGCAAGUUUCUACCGGGCACCGUAAAUGUCCGACUGGAGCCGUUCGGGCGGCUAUAAACAGACCUCAGGCCCGAAGCGUGGCGGCACCUGCCGCCGGUGGUAAAAAAGAUCGGAAGAGCACACGUCU [U8C G9A U10A U11A C12A C13U] | 1.3
GGGUCGUCAAACGAUAAUCGCGUGGAUAUGGCACGCAAGUUUCUACCGGGCACCGUAAAUGUCCGACUGGAGCCGUUCGGGCGGCUAUAAACAGACCUCAGGCCCGAAGCGUGGCGGCACCUGCCGCCGGUGGUAAAAAAGAUCGGAAGAGCACACGUCU [U8C G9A U10A U11A C13G] | 1.07
GGGUCGUCAAACAAUAAUCGCGUGGAUAUGGCACGCAAGUUUCUACCGGGCACCGUAAAUGUCCGACUGGAGCCGUUCGGGCGGCUAUAAACAGACCUCAGGCCCGAAGCGUGGCGGCACCUGCCGCCGGUGGUAAAAAAGAUCGGAAGAGCACACGUCU [U8C G9A U10A U11A C13A] | 1.17
GGGUCGUCAAACUAUAAUCGCGUGGAUAUGGCACGCAAGUUUCUACCGGGCACCGUAAAUGUCCGACUGGAGCCGUUCGGGCGGCUAUAAACAGACCUCAGGCCCGAAGCGUGGCGGCACCUGCCGCCGGUGGUAAAAAAGAUCGGAAGAGCACACGUCU [U8C G9A U10A U11A C13U] | 1.28
